Patent publication EP4477665A1 (AffyXell Therapeutics Co., Ltd., dated 2024)

T1: human CD40L (hCD40L antigen) (human, UniProt P29965 113-261, limits assumed)
T1 sequence (looked up): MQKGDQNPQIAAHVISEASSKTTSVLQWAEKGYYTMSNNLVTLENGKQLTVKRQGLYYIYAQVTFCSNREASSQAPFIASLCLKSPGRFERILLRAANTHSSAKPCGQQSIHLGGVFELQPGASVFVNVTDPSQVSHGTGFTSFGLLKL

T2: hCD40L expressed on hCD40L-HEK-293 cells (Crown Biosciences, C2041) (human, UniProt P29965 1-261)
T2 construct: whole, on cells; also called huCD40L HEK293
T2 sequence (looked up): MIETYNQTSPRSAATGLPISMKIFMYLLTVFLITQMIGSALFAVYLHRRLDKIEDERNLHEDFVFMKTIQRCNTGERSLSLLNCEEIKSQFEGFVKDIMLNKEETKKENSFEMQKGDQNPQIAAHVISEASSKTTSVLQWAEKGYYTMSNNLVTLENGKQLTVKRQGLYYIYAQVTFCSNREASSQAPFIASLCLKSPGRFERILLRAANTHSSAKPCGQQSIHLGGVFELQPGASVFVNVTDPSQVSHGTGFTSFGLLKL


What was measured:
human serum albumin = molecular target: T3, human serum albumin (human, UniProt P02768 25-609); assay: bridging ELISA: capture on coated hCD40L, 10 uM HSA, anti-HSA detection
T3 construct: also called HSA

[1] = molecular target: T1, human CD40L (hCD40L antigen); assay: cell-based or functional assay
[2] = molecular target: T2, hCD40L expressed on hCD40L-HEK-293 …; assay: flow cytometry on hCD40L-HEK293 cells, doses 0.7 to 500 nM

T3 sequence (P02768 25-609): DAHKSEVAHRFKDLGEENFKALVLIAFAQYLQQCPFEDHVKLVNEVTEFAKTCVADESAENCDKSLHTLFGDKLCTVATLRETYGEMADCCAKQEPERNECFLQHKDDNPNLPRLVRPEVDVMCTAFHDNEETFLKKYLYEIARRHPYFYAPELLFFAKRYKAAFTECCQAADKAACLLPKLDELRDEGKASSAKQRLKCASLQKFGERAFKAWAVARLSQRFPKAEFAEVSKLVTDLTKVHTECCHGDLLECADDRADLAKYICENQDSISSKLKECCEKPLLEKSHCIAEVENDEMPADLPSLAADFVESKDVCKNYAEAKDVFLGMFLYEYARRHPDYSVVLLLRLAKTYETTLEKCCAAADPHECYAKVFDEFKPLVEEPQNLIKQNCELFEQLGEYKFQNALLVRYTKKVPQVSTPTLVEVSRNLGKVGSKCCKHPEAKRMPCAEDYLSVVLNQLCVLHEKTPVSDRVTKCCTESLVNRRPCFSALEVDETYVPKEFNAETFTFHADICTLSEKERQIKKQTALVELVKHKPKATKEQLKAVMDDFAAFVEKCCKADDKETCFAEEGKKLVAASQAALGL

| binding result (human serum albumin) | Binder | further results |
| --- | --- | --- |
| binds | clone-230 XT76 (designed binder) IPGGLSEAKPATPEIQEIVDKVKPQLEEKTGETYGKLEAVQYKTQVVHYYVHYNDQGTNYYIKVRAGDNKYMHLKVFKSLWGENLFAKWEDLVLTGYQVDKNKDDELTGFAEAAAKEAAAKEAAAKEAAAKEAAAKEAAAKMIPGGLSEAKPATPEIQEIVDKVKPQLEEKTGETYGKLEAVQYKTQVVHYYVHYNDQGTNYYIKVRAGDNKYMHLKVFKSLWGENLFAKWEDLVLTGYQVDKNKDDELTGFAEAAAKEAAAKEAAAKEAAAKEAAAKEAAAKMIPGGLSEAKPATPEIQEIVDKVKPQLEEKTGETYGKLEAVQYKTQVVHYYVHYNDQGTNYYIKVRAGDNKYMHLKVFKSLWGENLFAKWEDLVLTGYQVDKNKDDELTGFAEAAAKEAAAKEAAAKEAAAKEAAAKEAAAKMIPGGLSEAKPATPEIQEIVDKVKPQLEEKTGETYGKLEAVQYKTQVVHYYVHYNDQGTNYYIKVRAGDNKYMHLKVFKSLWGENLFAKWEDLVLTGYQVDKNKDDELTGFAEAAAKEAAAKEAAAKEAAAKEAAAKEAAAKMIPRGLSEAKPATPEIQEIVDKVKPQLEEKTGETYGKLEAVQYKTQVLANFFQRRWPGSTNYYIKVRAGDNKYMHLKVFNGPWKFRNTDRGADRVLTGYQVDKNKDDELTGF |  |
|  | clone 230 DJ (designed binder) IPGGLSEAKPATPEIQEIVDKVKPQLEEKTGETYGKLEAVQYKTQVVHYYVHYNDQGTNYYIKVRAGDNKYMHLKVFKSLWGENLFAKWEDLVLTGYQVDKNKDDELTGFGGGGSGGGGSGGGGSGGGGSGGGGSGGGGSMIPGGLSEAKPATPEIQEIVDKVKPQLEEKTGETYGKLEAVQYKTQVVHYYVHYNDQGTNYYIKVRAGDNKYMHLKVFKSLWGENLFAKWEDLVLTGYQVDKNKDDELTGFGGGGSGGGGSGGGGSGGGGSGGGGSGGGGSMIPGGLSEAKPATPEIQEIVDKVKPQLEEKTGETYGKLEAVQYKTQVVHYYVHYNDQGTNYYIKVRAGDNKYMHLKVFKSLWGENLFAKWEDLVLTGYQVDKNKDDELTGF | EC50, HEK-Blue cell-based assay [1]: 5.99 nM |
| binds | clone-230 XT75 (designed binder) IPGGLSEAKPATPEIQEIVDKVKPQLEEKTGETYGKLEAVQYKTQVVHYYVHYNDQGTNYYIKVRAGDNKYMHLKVFKSLWGENLFAKWEDLVLTGYQVDKNKDDELTGFAEAAAKEAAAKEAAAKEAAAKEAAAKEAAAKMIPGGLSEAKPATPEIQEIVDKVKPQLEEKTGETYGKLEAVQYKTQVVHYYVHYNDQGTNYYIKVRAGDNKYMHLKVFKSLWGENLFAKWEDLVLTGYQVDKNKDDELTGFAEAAAKEAAAKEAAAKEAAAKEAAAKEAAAKMIPGGLSEAKPATPEIQEIVDKVKPQLEEKTGETYGKLEAVQYKTQVVHYYVHYNDQGTNYYIKVRAGDNKYMHLKVFKSLWGENLFAKWEDLVLTGYQVDKNKDDELTGFAEAAAKEAAAKEAAAKEAAAKEAAAKEAAAKMIPRGLSEAKPATPEIQEIVDKVKPQLEEKTGETYGKLEAVQYKTQVLANFFQRRWPGSTNYYIKVRAGDNKYMHLKVFNGPWKFRNTDRGADRVLTGYQVDKNKDDELTGF |  |
|  | clone 230 (designed binder) MIPGGLSEAKPATPEIQEIVDKVKPQLEEKTGETYGKLEAVQYKTQVVHYYVHYNDQGTNYYIKVRAGDNKYMHLKVFKSLWGENLFAKWEDLVLTGYQVDKNKDDELTGF | binding result [2]: binds |
